± gives the uncertainty stated by the source.
B1: Gamma-crystallin C, residues 4 to 79; numbered along this chain, P07315 (parent)
chain: ITFYEDRAFQGRSYETTTDCPNLQPYFSRCNSIRVESGCWMLYERPNYQGQQYLLRRGEYPDYQQWMGLSDSIRSC

Variants of: B1
Assay: abundance fitness (aPCA) (normalised: wild type 0, dead -1); higher = more abundant; growth selection in yeast, the domain comes from the species named
Conditions: Homo sapiens

Variant | abundance fitness
E59R | -0.181 ± 0.064
E59P | 0.003 ± 0.15
D71C | -0.017 ± 0.11
D71F | -0.132 ± 0.16
D71W | -0.02 ± 0.14
D71S | -0.056 ± 0.055
D71M | -0.133 ± 0.075
D71P | -0.135 ± 0.071
L69E | 0.017 ± 0.075
L69F | 0.147 ± 0.12
L69N | -0.045 ± 0.18
L69T | 0.047 ± 0.085
L69G | -0.028 ± 0.041
R12P | -0.053 ± 0.076
R12V | -0.039 ± 0.056
R12L | -0.034 ± 0.053
R12A | -0.058 ± 0.071
R12Y | -0.022 ± 0.15
R12C | -0.063 ± 0.063
S13G | -0.024 ± 0.066
S13M | -0.075 ± 0.077
S13D | -0.122 ± 0.14
S13F | -0.16 ± 0.18
S13Y | -0.271 ± 0.2

Variant | abundance fitness
F9C | 0.12 ± 0.13
F9S | -0.617 ± 0.18
F9M | -0.095 ± 0.19
F9L | 0.12 ± 0.16
S32A | -0.101 ± 0.087
S32Q | -0.916 ± 0.4
N47K | 0.025 ± 0.1
N47M | -0.044 ± 0.12
N47H | -0.125 ± 0.15
N47E | 0.047 ± 0.12
N47Y | 0.002 ± 0.24
N47F | -0.101 ± 0.33
I73L | 0.025 ± 0.077
I73K | -0.801 ± 0.25
I73D | -0.861 ± 0.23
I73V | 0.085 ± 0.089
I73Q | -0.798 ± 0.26
I73S | -0.39 ± 0.084
I73P | 0.071 ± 0.081
Y43S | 0.094 ± 0.083
Y43C | 0.111 ± 0.12
Y43A | -0.156 ± 0.079
Y43L | -0.889 ± 0.13
Y43G | -0.775 ± 0.083

Variant | abundance fitness
Y43D | -0.817 ± 0.29
Q52T | -0.114 ± 0.13
Q52A | -0.014 ± 0.16
Q52H | 0.082 ± 0.45
Q52M | -0.108 ± 0.21
Q52Y | -0.326 ± 0.47
Q52N | -0.053 ± 0.21
Q52V | -0.076 ± 0.11
Q52G | -0.071 ± 0.076
S70P | 0.082 ± 0.084
S70M | -0.132 ± 0.097
S70T | -0.072 ± 0.075
P25V | 0.054 ± 0.087
P25S | 0.047 ± 0.066
P25E | 0.086 ± 0.12
P25Y | -0.257 ± 0.26
P25D | 0.323 ± 0.22
Q49D | -0.041 ± 0.41
Q49R | -0.07 ± 0.059
Q49P | -0.805 ± 0.34
V35I | -0.916 ± 0.41
V35C | -0.291 ± 0.15
V35P | -1.03 ± 0.34
V35L | -0.038 ± 0.085

Variant | abundance fitness
V35Y | -0.827 ± 0.36
I1L | -0.4 ± 0.38
I1M | -0.291 ± 0.16
S28I | -0.017 ± 0.089
S28A | -0.038 ± 0.1
S28L | -0.082 ± 0.1
S28F | 0.044 ± 0.1
S28V | -0.03 ± 0.084
S28C | -0.117 ± 0.17
S28R | -0.045 ± 0.072
E5P | -0.127 ± 0.13
E5R | 0.014 ± 0.067
E5T | -0.156 ± 0.078
P21A | -0.028 ± 0.11
P21W | -0.05 ± 0.12
P21R | -0.131 ± 0.052
P21C | -0.119 ± 0.1
P21F | -0.161 ± 0.24
Q64N | 0.044 ± 0.082
Q64F | -0.09 ± 0.12
Q64C | 0.062 ± 0.096
Q64I | -0.039 ± 0.12
E15M | -0.013 ± 0.15
E15D | -0.064 ± 0.12

Variant | abundance fitness
E15N | 0.075 ± 0.28
E15V | -0.073 ± 0.11
M67H | -0.01 ± 0.25
M67V | 0.008 ± 0.073
M67R | -0.005 ± 0.072
M67W | 0.044 ± 0.087
M67T | -0.018 ± 0.077
M67D | -0.106 ± 0.15
Y48K | -0.813 ± 0.34
Y48H | 0.042 ± 0.21
Y48V | -0.955 ± 0.27
Y48F | -0.584 ± 0.31
Y48E | -0.373 ± 0.15
C76T | -0.002 ± 0.15
C76V | 0.061 ± 0.073
Y53A | -0.127 ± 0.15
Y53F | -0.015 ± 0.16
F27A | 0.124 ± 0.11
F27Y | -0.468 ± 0.23
F27H | -0.096 ± 0.033
F27C | -0.203 ± 0.17
F27L | -0.09 ± 0.08
F27E | -0.794 ± 0.25
F27K | -0.658 ± 0.12

Variant | abundance fitness
F27G | -0.186 ± 0.063
F27I | -0.144 ± 0.28
F27S | -0.109 ± 0.076
F27T | 0.079 ± 0.11
T18C | -0.165 ± 0.19
T18E | -0.02 ± 0.1
T18I | -0.031 ± 0.19
R57L | -0.059 ± 0.081
R57K | 0.049 ± 0.15
R57A | 0.046 ± 0.12
R57S | -0.039 ± 0.11
R57Y | -0.269 ± 0.18
R57H | 0.001 ± 0.41
R57M | 0.07 ± 0.29
W40C | 0.03 ± 0.2
W40T | -0.43 ± 0.17
W40A | 0.036 ± 0.084
Q10W | -0.159 ± 0.091
Q10R | -0.082 ± 0.052
Q10H | 0.124 ± 0.24
Q51T | -0.159 ± 0.12
Q51L | 0.014 ± 0.16
Q51M | -0.088 ± 0.22
Q51S | -0.015 ± 0.22

Variant | abundance fitness
C30I | -0.1 ± 0.14
C30F | -0.176 ± 0.12
R74T | 0.12 ± 0.082
R74V | 0.108 ± 0.053
R74M | 0.007 ± 0.082
R74H | -0.001 ± 0.11
R74I | 0.02 ± 0.076
R74P | -0.389 ± 0.099
G50D | -0.456 ± 0.2
G50H | -0.857 ± 0.43
G50S | -0.244 ± 0.1
G50K | -0.574 ± 0.25
G50M | -1.02 ± 0.38
L54Y | -0.393 ± 0.25
L54K | 0.057 ± 0.19
L54P | -0.092 ± 0.13
L54N | -0.025 ± 0.35
L54W | -0.073 ± 0.13
P61G | -0.041 ± 0.069
P61K | 0 ± 0.11
P61F | -0.039 ± 0.25
P61D | -0.034 ± 0.2
P61E | -0.094 ± 0.22
